According to US9090686B2, “Antibodies for the treatment of HIV” (Pierre Fabre Medicament, priority 2009, dated 2015):
Numbering of substitutions follows the chain as printed.

B1: 515H7: murine anti-CXCR4 monoclonal antibody; light chain variable domain SEQ ID No. 7, heavy chain variable domain SEQ ID No. 8 (antibody, listed as Mus musculus, V domains shown)
VH: EVNLVESGGGLVQPGGSLRLSCATSGFTFTDNYMSWVRQPPGKALEWLGFIRNKANGYTTDYSASVRGRFTISRDNSQSILYLQMNALRAEDSATYYCARDVGSNYFDYWGQGTTLTVSS
VL: DIVMSQSPSSLAVSAGEKVTMSCKSSQSLFNSRTRKNYLAWYQQKPGQSPKLLIYWASARDSGVPARFTGSGSETYFTLTISRVQAEDLAVYYCMQSFNLRTFGGGTKLEIK
B2: c515H7: chimeric antibody 515H7: murine variable domains fused to human Ckappa and IgG1/IgG2/IgG4 constant domains; isotype tested not stated (antibody, V domains shown)
VH: B1 VH
VL: B1 VL
B3: 301aE5: murine anti-CXCR4 monoclonal antibody; light chain variable domain SEQ ID No. 34, heavy chain variable domain SEQ ID No. 35 (antibody, listed as Mus musculus, V domains shown)
VH: QVQLKESGPGLVAPSQSLSITCTVSGFSLTDYGVYWVRQPPGKGLEWLGMIWGDGTTDYNSALKSRLSISKDNSKSQVFLKMNTLQTDDTARYYCARGRQFGFDYWGQGTTLTVSS
VL: B1 VL with S22R, Y55F, A59I, D61E, A66D, E74G, Y76D, R83S, M95K, F98Y

Tests used:
[1] = test system: HIV-1 primary isolate 89.6 (dual X4/R5 virus); assay: Single cycle neutralization assay in human PBMC, isolate 89.6; assay type: cell-based
Experimental: This assay is performed in 36 h using primary isolate 89.6 concentrated and diluted accordingly to allow the detection 2% infected CD4 T lymphocytes after 2 days of infection.
(§1) Twenty-five microliters of various dilutions of Mabs 515H7, c515H7 and 301aE5 were incubated for 1 h at 37° C. with 25 μl of virus. Human PBMC (25 μl) at 20×10^6 cells/ml were added to the Mab/virus mixture in a 96-well plate (U-bottom, Costar 3599) and cultured for 36 h in RPMI 1640 10% FCS and 20 U/ml IL-2 (R&D Systems, Minneapolis, Minn.).
(§2) After 2 days of culture, HIV-infected lymphocytes were detected by intracellular staining of viral p24 Ag. Cells were fixed and permeabilized using both Cytofix/Cytoperm and Perm/Wash kits (BD Biosciences) according to the manufacturer and stained with a fluorescent anti-p24 Mab (FITC- or PE-anti-p24, clone KC57; Beckman Coulter/Immunotech, Hialeah, FL) used at a 1/160 dilution in Perm/Wash solution added for 15 min at 4° C. After washing in PBS with 3% FBS, PBMC were diluted in 300 μl of PBS before flow cytometry analysis (LSRII; BD Biosciences) with DIVA software (BD Biosciences). The percentage of p24-positive cells in the different samples was determined by gating 20,000 events on a living cell population identified by forward- and side-scatter parameters. The living cell subsets were analyzed with the live/dead solution kit (Invitrogen). The p24 Ag-positive value was obtained after subtraction of background events in mock-infected cells.
The percent of neutralization was defined as the reduction of p24-positive cells compared with control infected wells with no Mab. The neutralizing titer was defined as the concentration of antibody (interpolated between successive dilutions performed in triplicate) that allows a 90% decrease in the percentage of infected cells.

[2] = test system: HIV-1 X4 primary isolate 92UG024; assay: Single cycle neutralization assay in human PBMC, isolate 92UG024; assay type: cell-based; parameters: 92UG024 % inhibition of infected cells 90 / 92UG024 % inhibition of infected cells 80: unit not given here; details: for 92UG024 % inhibition of infected cells 90: IC for 90% inhibition
Experimental: This assay is performed in 36 h using primary isolates KON, MN and 92UG024 concentrated and diluted accordingly to allow the detection 2% infected CD4 T lymphocytes after 2 days of infection.
as §1
as §2, with “Fla.)” for “FL)”
The percent of neutralization was defined as the reduction of p24-positive cells compared with control infected wells with no Mab. […]

[3] = test system: HIV-1 X4 primary isolate KON; assay: Single cycle neutralization assay in human PBMC, isolate KON; assay type: cell-based; details: IC for 80% inhibition
NIH3T3 cells = assay: FACS binding to parent NIH3T3 cells; details: for binding to parent NIH3T3 cells (in words): FACS; for NIH3T3 (MFI): Mab 10 μg/ml, Mean Fluorescence Intensity by FACS
Experimental: NIH3T3 and NIH3T3-hCXCR4 transfected cells were incubated with 10 μg/ml of monoclonal antibodies 515H7 and 301aE5. The cells were then washed with 1% BSA/PBS/0.01% NaN3. Next, Alexa-labeled secondary antibodies were added to the cells and were allowed to incubate at 4° C. for 20 min. The cells were then washed again two times. Following the second wash, FACS analysis was performed.
NIH3T3-hCXCR4 transfected cells were incubated with a dose range of monoclonal antibody c515H7 from 0 μg/ml to 10 μg/ml. The cells were then washed with 1%BSA/PBS/0.01% NaN3. Next, Alexa-labeled secondary antibodies were added to the cells and were allowed to incubate at 4° C. for 20 min. The cells were then washed again two times. Following the second wash, FACS analysis was performed.
NIH3T3, NIH3T3-hCXCR4 transfected were incubated with 0 to 10 μg/mL of humanized Mabs 515H7 (hz515H7 VH1 D76N VL2, hz515H7 VH1 D76N VL2.1, hz515H7 VH1 D76N VL2.2, hz515H7 VH1 D76N VL2.3) for 20 min at 4° C. in the dark in 100 μl Facs buffer. After 3 washing in Facs buffer, cells were incubated with the secondary antibody, a goat anti-human Alexa 488 (dilution 1/500), for 20 minutes at 4° C. in the dark. After 3 washing in Facs buffer, propidium iodide was added in each well and only viable cells were analyzed by Facs. At least 5000 viable cells were assessed to evaluate the mean value of fluorescence intensity for each condition.

Molecule	inhibition of HIV-1 89.6 primary isolate replication in PBMC (in words) [1]	inhibition of HIV-1 X4 92UG024 primary isolate replication in PBMC (in words) [2]	92UG024 % inhibition of infected cells 90 ([2]; human PBMC)	KON % inhibition of infected cells 80 [3] [µg/mL]	binding to parent NIH3T3 cells (in words) (NIH3T3 cells)	NIH3T3 (MFI) (NIH3T3 cells)	92UG024 % inhibition of infected cells 80 ([2]; IC for 80% inhibition, human PBMC)
B1	able to inhibit	able to inhibit	10	8	no recognition	16	
B2	able to inhibit	able to inhibit	15	10	No binding was detected		
B3	able to inhibit	able to inhibit	>150	>150	no recognition	21	150
